From the supplement of paper PMC11246515
± gives the standard deviation of the averaged measurements.

Assay: total protein half-life in vivo (active degradation + dilution); higher = more stable protein
[1] = E. coli NCM3722 delta-clpP delta-lon delta-hslV, growth: N-lim chemostat, doubling time 6 h
[2] = E. coli NCM3722 delta-clpP, growth: N-lim chemostat, doubling time 6 h
[3] = E. coli NCM3722 delta-hslV, growth: N-lim chemostat, doubling time 6 h
[4] = E. coli NCM3722 delta-lon, growth: N-lim chemostat, doubling time 6 h
[5] = wild type E. coli NCM3722, growth: C-lim chemostat, doubling time 3 h
[6] = wild type E. coli NCM3722, growth: C-lim chemostat, doubling time 6 h
[7] = wild type E. coli NCM3722, growth: C-lim chemostat, doubling time 12 h
[8] = wild type E. coli NCM3722, growth: N-lim chemostat, doubling time 12 h
[9] = wild type E. coli NCM3722, growth: P-lim chemostat, doubling time 6 h
[10] = wild type E. coli NCM3722, growth: P-lim chemostat, doubling time 12 h
[11] = E. coli NCM3722 delta-smpB, growth: N-lim chemostat, doubling time 6 h
[12] = wild type E. coli NCM3722, growth: N-lim chemostat, doubling time 6 h

Sequence: MNEFFPLASAAGMTVGLAVCALIVGLALAMFFAVWESAKWRPVAWAGSALVTILRGLPEILVVLFIYFGSSQLLLTLSDGFTINLGFVQIPVQMDIENFDVSPFLCGVIALSLLYAAYASQTLRGALKAVPVGQWESGQALGLSKSAIFFRLVMPQMWRHALPGLGNQWLVLLKDTALVSLISVNDLMLQTKSIATRTQEPFTWYIVAAAIYLVITLLSQYILKRIDLRATRFERRPS [P0AE34]
- total protein half-life in vivo [1]: 7.86 h
- total protein half-life in vivo [2]: 6.25 h
- total protein half-life in vivo [3]: 6.66 ± 0.82 h
- total protein half-life in vivo [4]: 6.45 h
- total protein half-life in vivo [5]: 2.92 ± 0.51 h
- total protein half-life in vivo [6]: 6.02 ± 0.79 h
- total protein half-life in vivo [7]: 11.9 ± 0.15 h
- total protein half-life in vivo [8]: 11.5 ± 2.6 h
- total protein half-life in vivo [9]: 6.78 h
- total protein half-life in vivo [10]: 12.3 ± 0.57 h

Sequence: MDEYSPKRHDIAQLKFLCETLYHDCLANLEESNHGWVNDPTSAINLQLNELIEHIATFALNYKIKYNEDNKLIEQIDEYLDDTFMLFSSYGINMQDLQKWRKSGNRLFRCFVNATKENPASLSC [P0AAR0]
- total protein half-life in vivo [1]: 5.61 ± 0.1 h
- total protein half-life in vivo [2]: 7.07 h

Sequence: MKIRALLVAMSVATVLTGCQNMDSNGLLSSGAEAFQAYSLSDAQVKTLSDQACQEMDSKATIAPANSEYAKRLTTIANALGNNINGQPVNYKVYMAKDVNAFAMANGCIRVYSGLMDMMTDNEVEAVIGHEMGHVALGHVKKGMQVALGTNAVRVAAASAGGIVGSLSQSQLGNLGEKLVNSQFSQRQEAEADDYSYDLLRQRGISPAGLATSFEKLAKLEEGRQSSMFDDHPASAERAQHIRDRMSADGIK
- total protein half-life in vivo [1]: 5.03 ± 0.95 h
- total protein half-life in vivo [2]: 5.9 ± 0.43 h
- total protein half-life in vivo [3]: 5.87 ± 0.4 h
- total protein half-life in vivo [11]: 3.99 ± 0.98 h
- total protein half-life in vivo [5]: 2.69 ± 0.21 h
- total protein half-life in vivo [6]: 5.11 ± 0.41 h
- total protein half-life in vivo [7]: 8.35 ± 1.9 h
- total protein half-life in vivo [12]: 6.22 ± 0.35 h
- total protein half-life in vivo [8]: 10.2 ± 2.9 h
- total protein half-life in vivo [9]: 3.16 ± 0.24 h
- total protein half-life in vivo [10]: 9.05 ± 5.4 h

Sequence: MNKYTINDITRASGGFAMLAVDQREAMRMMFAAAGAPAPVADSVLTDFKVNAAKALSPYASAILVDQQFCYRQVVEQNAIAKSCAMIVAADEFIPGNGIPVDSVVIDRKINPLQIKQDGGKALKLLVLWRSDEDAQQRLDMVKEFNELCHSHGLVSIIEPVVRPPRRGDKFDREQAIIDAAKELGDSGADLYKVEMPLYGKGPQQELLCASQRLNDHINMPWVILSSGVDEKLFPRAVRVAMTAGASGFLAGRAVWASVVGLPDNELMLRDVCAPKLQQLGDIVDEMMAKRR
- total protein half-life in vivo [1]: 5.2 ± 0.61 h
- total protein half-life in vivo [2]: 4.38 ± 0.96 h
- total protein half-life in vivo [3]: 4.42 ± 0.41 h
- total protein half-life in vivo [4]: 5.52 ± 0.98 h
- total protein half-life in vivo [11]: 4.09 ± 0.52 h
- total protein half-life in vivo [5]: 2.93 ± 0.18 h
- total protein half-life in vivo [6]: 6.51 ± 1.8 h
- total protein half-life in vivo [7]: 8.63 ± 1.5 h
- total protein half-life in vivo [12]: 4.19 ± 0.58 h
- total protein half-life in vivo [8]: 6.3 ± 0.93 h
- total protein half-life in vivo [9]: 5.05 ± 0.15 h
- total protein half-life in vivo [10]: 10.2 ± 0.62 h

Sequence: MEWSLTQNKLLAFHRLMRTDKPIGALLLLWPTLWALWVATPGVPQLWILAVFVAGVWLMRAAGCVVNDYADRKFDGHVKRTANRPLPSGAVTEKEARALFVVLVLISFLLVLTLNTMTILLSIAALALAWVYPFMKRYTHLPQVVLGAAFGWSIPMAFAAVSESVPLSCWLMFLANILWAVAYDTQYAMVDRDDDVKIGIKSTAILFGQYDKLIIGILQIGVLALMAIIGELNGLGWGYYWSILVAGALFVYQQKLIANREREACFKAFMNNNYVGLVLFLGLAMSYWHF [P0AGK1]
- total protein half-life in vivo [1]: 1.5 ± 0.18 h
- total protein half-life in vivo [2]: 1.13 h
- total protein half-life in vivo [3]: 1.29 h
- total protein half-life in vivo [4]: 0.759 h
- total protein half-life in vivo [11]: 1.45 ± 0.17 h
- total protein half-life in vivo [5]: 1.27 ± 0.027 h
- total protein half-life in vivo [6]: 1.92 ± 0.27 h
- total protein half-life in vivo [7]: 2.32 ± 0.41 h
- total protein half-life in vivo [12]: 1.29 ± 0.2 h
- total protein half-life in vivo [9]: 2.18 ± 0.52 h
- total protein half-life in vivo [10]: 2.85 h

Sequence: MAVTKLVLVRHGESQWNKENRFTGWYDVDLSEKGVSEAKAAGKLLKEEGYSFDFAYTSVLKRAIHTLWNVLDELDQAWLPVEKSWKLNERHYGALQGLNKAETAEKYGDEQVKQWRRGFAVTPPELTKDDERYPGHDPRYAKLSEKELPLTESLALTIDRVIPYWNETILPRMKSGERVIIAAHGNSLRALVKYLDNMSEEEILELNIPTGVPLVYEFDENFKPLKRYYLGNADEIAAKAAAVANQGKAK
- total protein half-life in vivo [1]: 5.09 ± 0.33 h
- total protein half-life in vivo [2]: 5.4 ± 0.96 h
- total protein half-life in vivo [3]: 5.11 ± 0.76 h
- total protein half-life in vivo [4]: 5.42 ± 0.82 h
- total protein half-life in vivo [11]: 4.7 ± 0.09 h
- total protein half-life in vivo [5]: 3.18 ± 0.098 h
- total protein half-life in vivo [6]: 6.37 ± 0.56 h
- total protein half-life in vivo [7]: 10.3 ± 0.34 h
- total protein half-life in vivo [12]: 4.85 ± 0.46 h
- total protein half-life in vivo [8]: 8.63 ± 0.17 h
- total protein half-life in vivo [9]: 6.02 ± 0.45 h
- total protein half-life in vivo [10]: 12 ± 0.62 h

Sequence: MAELLLGVNIDHIATLRNARGTAYPDPVQAAFIAEQAGADGITVHLREDRRHITDRDVRILRQTLDTRMNLEMAVTEEMLAIAVETKPHFCCLVPEKRQEVTTEGGLDVAGQRDKMRDACKRLADAGIQVSLFIDADEEQIKAAAEVGAPFIEIHTGCYADAKTDAEQAQELARIAKAATFAASLGLKVNAGHGLTYHNVKAIAAIPEMHELNIGHAIIGRAVMTGLKDAVAEMKRLMLEARG [P0A794]
- total protein half-life in vivo [1]: 5.813 ± 0.038 h
- total protein half-life in vivo [2]: 5.468 ± 0.049 h
- total protein half-life in vivo [3]: 5.95 ± 0.48 h
- total protein half-life in vivo [4]: 5.61 ± 0.29 h
- total protein half-life in vivo [11]: 5.4 ± 0.14 h
- total protein half-life in vivo [5]: 3.17 ± 0.12 h
- total protein half-life in vivo [6]: 5.5 ± 0.1 h
- total protein half-life in vivo [7]: 11.7 ± 0.53 h
- total protein half-life in vivo [12]: 5.9 ± 0.39 h
- total protein half-life in vivo [8]: 9.84 ± 0.17 h
- total protein half-life in vivo [9]: 6.06 ± 0.43 h

Sequence: MNTRWQQAGQKVKPGFKLAGKLVLLTALRYGPAGVAGWAIKSVARRPLKMLLAVALEPLLSRAANKLAQRYKR [P0AFV8]
- total protein half-life in vivo [1]: 3.32 ± 0.39 h

Sequence: MDWLAKYWWILVIVFLVGVLLNVIKDLKRVDHKKFLANKPELPPHRDFNDKWDDDDDWPKKDQPKK [Q2EET2]
- total protein half-life in vivo [1]: 4.44 ± 0.075 h
- total protein half-life in vivo [2]: 4.57 ± 1.7 h
- total protein half-life in vivo [4]: 5.94 ± 1.8 h
- total protein half-life in vivo [11]: 4.97 ± 0.94 h
- total protein half-life in vivo [5]: 3.28 ± 0.98 h
- total protein half-life in vivo [6]: 5.63 ± 0.88 h
- total protein half-life in vivo [7]: 6.37 h
- total protein half-life in vivo [12]: 5.06 h
- total protein half-life in vivo [8]: 9.68 ± 5.2 h
- total protein half-life in vivo [9]: 3.81 h
- total protein half-life in vivo [10]: 7.42 ± 0.16 h
